This is an account of results in article PMC4646087 (Journal of molecular biology, 2015).

Read-outs that look alike come from different tables or passages of the source.

Assay [1] concerns the target T1, TOG2-SR construct of human CLASP2 (human).
T1 sequence (O75122 whole entry, looked up): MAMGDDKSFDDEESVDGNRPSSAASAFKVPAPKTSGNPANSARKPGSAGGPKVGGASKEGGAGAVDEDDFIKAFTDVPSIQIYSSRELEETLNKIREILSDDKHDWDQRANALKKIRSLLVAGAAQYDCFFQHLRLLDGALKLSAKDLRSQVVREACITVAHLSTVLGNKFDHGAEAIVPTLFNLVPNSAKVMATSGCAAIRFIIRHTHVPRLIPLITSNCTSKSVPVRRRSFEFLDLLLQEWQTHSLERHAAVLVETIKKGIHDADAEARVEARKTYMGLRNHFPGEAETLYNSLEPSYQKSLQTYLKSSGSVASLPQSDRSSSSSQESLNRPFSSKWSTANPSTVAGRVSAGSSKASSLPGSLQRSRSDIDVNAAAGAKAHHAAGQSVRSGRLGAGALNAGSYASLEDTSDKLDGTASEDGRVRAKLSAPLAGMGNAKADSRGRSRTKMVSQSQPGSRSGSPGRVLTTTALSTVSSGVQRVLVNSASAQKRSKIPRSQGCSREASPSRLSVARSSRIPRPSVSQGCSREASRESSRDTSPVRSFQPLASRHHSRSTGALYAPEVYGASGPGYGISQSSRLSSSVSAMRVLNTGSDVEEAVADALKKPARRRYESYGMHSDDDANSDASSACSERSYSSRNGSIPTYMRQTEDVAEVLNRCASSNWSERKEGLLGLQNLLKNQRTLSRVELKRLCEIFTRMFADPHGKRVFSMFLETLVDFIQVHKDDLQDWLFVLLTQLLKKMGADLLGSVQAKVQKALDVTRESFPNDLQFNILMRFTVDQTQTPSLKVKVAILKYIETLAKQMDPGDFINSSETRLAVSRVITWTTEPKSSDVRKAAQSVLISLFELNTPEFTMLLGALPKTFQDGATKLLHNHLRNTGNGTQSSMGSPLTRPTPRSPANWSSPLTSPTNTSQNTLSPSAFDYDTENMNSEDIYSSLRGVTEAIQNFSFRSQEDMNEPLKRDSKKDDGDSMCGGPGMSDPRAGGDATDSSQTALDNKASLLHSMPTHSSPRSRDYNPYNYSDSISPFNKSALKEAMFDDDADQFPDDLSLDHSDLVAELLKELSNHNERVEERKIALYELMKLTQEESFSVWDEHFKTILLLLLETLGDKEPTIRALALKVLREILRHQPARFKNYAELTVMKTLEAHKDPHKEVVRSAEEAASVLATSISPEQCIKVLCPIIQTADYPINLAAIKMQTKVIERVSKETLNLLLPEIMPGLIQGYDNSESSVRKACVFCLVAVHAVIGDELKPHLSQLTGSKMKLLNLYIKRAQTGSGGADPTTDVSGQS
Put plainly: ITC. (In ITC the heat of successive injections is recorded.)

The target of assay [2] is T2, SR-TOG3 construct of human CLASP2 (human).
T2 sequence (O75122 whole entry, looked up): T1 sequence (O75122 whole entry, looked up)
Put plainly: ITC.

Assay [3] deals with T3, SR region of human CLASP2 (residues 311-648) (human, UniProt O75122 311-648).
T3 sequence (looked up): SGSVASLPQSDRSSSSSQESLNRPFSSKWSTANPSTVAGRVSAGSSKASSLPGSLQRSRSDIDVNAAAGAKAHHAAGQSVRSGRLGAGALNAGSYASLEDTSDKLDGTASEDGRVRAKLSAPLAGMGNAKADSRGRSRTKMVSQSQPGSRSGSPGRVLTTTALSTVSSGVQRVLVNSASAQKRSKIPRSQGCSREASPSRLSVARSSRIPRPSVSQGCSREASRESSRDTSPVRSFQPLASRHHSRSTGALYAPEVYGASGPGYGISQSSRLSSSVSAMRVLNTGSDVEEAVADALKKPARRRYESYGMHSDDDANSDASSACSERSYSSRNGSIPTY
The assay is described as follows: ITC.

Assay [4] addresses T3, SR region of human CLASP2 (residues …). Put plainly: ITC. The source holds these as a separate data set.
The target of assay [5] is αβ-tubulin heterodimer isolated from porcine brain (porcine) (UniProt P02550). The assay is described as follows: co-sedimentation.

Broadly, the Kd is the concentration at which binding is half-saturated. Higher therefore signals weaker binding. Consider “EB1 (dimeric) (from UniProt Q15691 1-268) (natural protein)”, for which, in assay [1], the Kd stood at 2000 nM and the stoichiometry N (CLASP2 versus EB1 dimer) came to 2.2. Also, in assay [2], the Kd was 1200 nM and the stoichiometry N (CLASP2 versus EB1 dimer) amounted to 2.

B1: EB1 (dimeric) (natural protein, UniProt Q15691 1-268, looked up)
chain: MAVNVYSTSVTSDNLSRHDMLAWINESLQLNLTKIEQLCSGAAYCQFMDMLFPGSIALKKVKFQAKLEHEYIQNFKILQAGFKRMGVDKIIPVDKLVKGKFQDNFEFVQWFKKFFDANYDGKDYDPVAARQGQETAVAPSLVAPALNKPKKPLTSSSAAPQRPISTQRTAAAPKAGPGVVRKNPGVGNGDDEAAELMQQVNVLKLTVEDLEKERDFYFGKLRNIELICQENEGENDPVLQRIVDILYATDEGFVIPDEGGPQEEQEEY
Usually stoichiometry N stands for the number of molecules, sites or subunits per partner or assembly. With B1, in assay [3], the Kd was determined as 3000 ± 400 nM and the “stoichiometry N” value is 2 CLASP2 versus EB1 dimer. For the same molecule, in assay [4], binding was put at a Kd of 2000 ± 400 nM and the “stoichiometry N” value came out at 2 CLASP2 versus EB1 dimer.

B2: human CLASP2 TOG3 domain (hC2-TOG3; residues 649-881) (domain or fragment)
chain: MRQTEDVAEVLNRCASSNWSERKEGLLGLQNLLKNQRTLSRVELKRLCEIFTRMFADPHGKRVFSMFLETLVDFIQVHKDDLQDWLFVLLTQLLKKMGADLLGSVQAKVQKALDVTRESFPNDLQFNILMRFTVDQTQTPSLKVKVAILKYIETLAKQMDPGDFINSSETRLAVSRVITWTTEPKSSDVRKAAQSVLISLFELNTPEFTMLLGALPKTFQDGATKLLHNHLRN
Consider B2, for which the fold affinity relative to hC2-TOG2 in assay [5] was 3 fold.
